Measured values as given in article PMC8307404, “Crystal Structure-Guided Design of Bisubstrate Inhibitors and Photoluminescent Probes for Protein Kinases of the PIM Family” (Molecules, 2021).
Square brackets hold non-standard residues; d marks the D form. Peptide text beside a SMILES is read from it. * marks the point of attachment. X3 = O=C(CCCCCNCc1nc2c(sc3cc(Br)cnc32)c(=O)[nH]1)*

How the values were obtained:
Experiment in all cases: Kinase profiling (radiometric filter-binding)
Format in all cases: biochemical
WNK1 = WNK1 (Homo sapiens, UniProt Q9H4A3); conditions: WNK1, 1 µM inhibitor; read-out: Residual activity, %
Sequence of WNK1 (Q9H4A3 whole entry): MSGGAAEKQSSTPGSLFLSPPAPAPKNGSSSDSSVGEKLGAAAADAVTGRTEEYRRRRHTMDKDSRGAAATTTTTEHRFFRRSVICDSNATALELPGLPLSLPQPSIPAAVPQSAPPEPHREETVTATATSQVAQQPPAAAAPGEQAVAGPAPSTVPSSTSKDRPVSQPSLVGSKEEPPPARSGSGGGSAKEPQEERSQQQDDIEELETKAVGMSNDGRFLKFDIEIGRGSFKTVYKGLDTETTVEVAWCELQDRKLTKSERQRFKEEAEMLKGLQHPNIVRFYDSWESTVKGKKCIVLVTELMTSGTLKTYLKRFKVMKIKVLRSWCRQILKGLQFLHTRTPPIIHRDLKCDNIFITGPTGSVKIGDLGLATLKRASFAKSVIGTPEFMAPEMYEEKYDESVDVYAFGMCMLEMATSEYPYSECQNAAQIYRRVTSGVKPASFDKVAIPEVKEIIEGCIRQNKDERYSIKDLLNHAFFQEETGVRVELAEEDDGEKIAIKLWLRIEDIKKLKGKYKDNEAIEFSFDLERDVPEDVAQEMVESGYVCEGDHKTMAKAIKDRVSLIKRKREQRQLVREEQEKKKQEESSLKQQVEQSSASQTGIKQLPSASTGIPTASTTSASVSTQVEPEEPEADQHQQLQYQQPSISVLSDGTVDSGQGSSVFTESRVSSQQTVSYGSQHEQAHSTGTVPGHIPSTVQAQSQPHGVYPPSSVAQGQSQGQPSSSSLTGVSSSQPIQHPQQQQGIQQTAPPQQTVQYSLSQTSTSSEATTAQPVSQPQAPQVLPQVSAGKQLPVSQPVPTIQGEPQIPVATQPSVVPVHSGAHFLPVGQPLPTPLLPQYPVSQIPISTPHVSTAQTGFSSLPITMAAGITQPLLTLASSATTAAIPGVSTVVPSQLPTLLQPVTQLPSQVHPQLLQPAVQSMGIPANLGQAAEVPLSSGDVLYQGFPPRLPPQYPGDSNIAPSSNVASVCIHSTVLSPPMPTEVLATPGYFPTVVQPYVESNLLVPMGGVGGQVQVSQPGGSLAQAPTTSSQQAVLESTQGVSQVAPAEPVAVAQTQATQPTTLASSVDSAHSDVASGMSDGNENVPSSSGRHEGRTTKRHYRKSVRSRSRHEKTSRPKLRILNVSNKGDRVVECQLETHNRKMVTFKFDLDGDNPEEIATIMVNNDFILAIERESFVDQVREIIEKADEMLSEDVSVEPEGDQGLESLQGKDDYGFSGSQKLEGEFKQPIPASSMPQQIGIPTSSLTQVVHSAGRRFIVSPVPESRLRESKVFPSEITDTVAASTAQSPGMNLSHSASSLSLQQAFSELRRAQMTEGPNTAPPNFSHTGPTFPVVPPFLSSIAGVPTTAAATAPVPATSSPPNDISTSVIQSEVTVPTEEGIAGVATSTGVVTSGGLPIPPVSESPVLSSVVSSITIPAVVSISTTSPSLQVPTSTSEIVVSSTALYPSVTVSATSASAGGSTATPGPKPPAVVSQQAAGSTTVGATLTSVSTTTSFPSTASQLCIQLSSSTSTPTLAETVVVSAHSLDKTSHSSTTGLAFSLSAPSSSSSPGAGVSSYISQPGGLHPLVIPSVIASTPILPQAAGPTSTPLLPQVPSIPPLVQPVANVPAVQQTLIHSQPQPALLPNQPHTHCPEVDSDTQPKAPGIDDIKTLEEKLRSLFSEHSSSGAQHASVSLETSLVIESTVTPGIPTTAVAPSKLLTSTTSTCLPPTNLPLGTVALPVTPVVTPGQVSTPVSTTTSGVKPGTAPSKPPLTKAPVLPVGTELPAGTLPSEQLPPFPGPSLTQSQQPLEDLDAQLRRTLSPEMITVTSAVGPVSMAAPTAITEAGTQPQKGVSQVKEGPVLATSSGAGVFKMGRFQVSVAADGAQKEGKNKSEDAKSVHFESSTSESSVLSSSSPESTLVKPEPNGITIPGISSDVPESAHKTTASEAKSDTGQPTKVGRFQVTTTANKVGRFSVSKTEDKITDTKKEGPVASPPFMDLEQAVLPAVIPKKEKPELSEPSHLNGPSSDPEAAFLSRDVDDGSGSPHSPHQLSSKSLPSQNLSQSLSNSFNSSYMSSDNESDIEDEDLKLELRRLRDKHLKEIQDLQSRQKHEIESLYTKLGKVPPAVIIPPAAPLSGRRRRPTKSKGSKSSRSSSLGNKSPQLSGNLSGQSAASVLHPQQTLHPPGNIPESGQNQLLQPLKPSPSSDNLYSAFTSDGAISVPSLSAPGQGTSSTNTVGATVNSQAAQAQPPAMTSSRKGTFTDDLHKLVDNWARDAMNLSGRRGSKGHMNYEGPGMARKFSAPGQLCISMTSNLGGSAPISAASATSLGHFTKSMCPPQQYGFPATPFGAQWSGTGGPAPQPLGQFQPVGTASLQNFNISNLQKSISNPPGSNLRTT
In short: (§1)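 Filter-binding radiometric assays of human kinases measure the fraction of activity that persists with 1 µM inhibitor (final). ATP is supplied at KM or lower for each target.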

PHK = PHK (Homo sapiens, UniProt Q16816); conditions: 1 µM inhibitor, read-out: Residual activity, %
In short: as §1

PDGFRA = PDGFRA (Homo sapiens, UniProt P16234); conditions: 1 µM inhibitor, read-out: Residual activity, %
Sequence of PDGFRA (P16234 24-1089): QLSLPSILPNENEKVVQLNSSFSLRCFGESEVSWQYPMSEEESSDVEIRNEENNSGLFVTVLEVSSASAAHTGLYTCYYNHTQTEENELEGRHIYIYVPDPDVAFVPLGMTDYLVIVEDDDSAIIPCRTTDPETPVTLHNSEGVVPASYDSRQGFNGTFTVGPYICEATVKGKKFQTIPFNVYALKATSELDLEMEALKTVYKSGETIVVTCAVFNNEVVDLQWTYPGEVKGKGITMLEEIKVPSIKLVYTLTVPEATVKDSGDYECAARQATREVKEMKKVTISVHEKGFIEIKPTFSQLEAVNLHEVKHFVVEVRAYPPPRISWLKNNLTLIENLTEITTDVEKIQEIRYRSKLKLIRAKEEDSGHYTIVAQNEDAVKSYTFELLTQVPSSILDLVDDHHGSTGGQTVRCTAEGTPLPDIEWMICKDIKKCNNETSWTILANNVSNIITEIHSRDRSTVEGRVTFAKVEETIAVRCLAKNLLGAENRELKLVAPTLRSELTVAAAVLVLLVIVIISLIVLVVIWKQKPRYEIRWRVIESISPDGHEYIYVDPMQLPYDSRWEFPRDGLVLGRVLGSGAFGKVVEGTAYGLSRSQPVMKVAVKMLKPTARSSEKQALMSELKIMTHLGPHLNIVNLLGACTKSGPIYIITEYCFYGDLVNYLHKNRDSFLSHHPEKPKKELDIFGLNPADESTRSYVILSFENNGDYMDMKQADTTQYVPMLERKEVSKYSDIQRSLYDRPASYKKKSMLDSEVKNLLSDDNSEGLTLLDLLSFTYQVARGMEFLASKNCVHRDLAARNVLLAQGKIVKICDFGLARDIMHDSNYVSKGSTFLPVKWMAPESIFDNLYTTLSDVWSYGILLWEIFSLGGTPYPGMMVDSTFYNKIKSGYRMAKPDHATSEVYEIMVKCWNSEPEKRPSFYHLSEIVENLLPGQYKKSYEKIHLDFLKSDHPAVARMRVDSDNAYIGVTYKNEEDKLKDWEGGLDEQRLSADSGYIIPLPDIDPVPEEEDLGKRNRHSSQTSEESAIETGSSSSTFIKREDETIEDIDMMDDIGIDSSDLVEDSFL
In short: as §1

RIPK2 = RIPK2 (Homo sapiens, UniProt O43353); conditions: RIPK2, 1 µM inhibitor; read-out: Residual activity, %
Sequence of RIPK2 (O43353 whole entry): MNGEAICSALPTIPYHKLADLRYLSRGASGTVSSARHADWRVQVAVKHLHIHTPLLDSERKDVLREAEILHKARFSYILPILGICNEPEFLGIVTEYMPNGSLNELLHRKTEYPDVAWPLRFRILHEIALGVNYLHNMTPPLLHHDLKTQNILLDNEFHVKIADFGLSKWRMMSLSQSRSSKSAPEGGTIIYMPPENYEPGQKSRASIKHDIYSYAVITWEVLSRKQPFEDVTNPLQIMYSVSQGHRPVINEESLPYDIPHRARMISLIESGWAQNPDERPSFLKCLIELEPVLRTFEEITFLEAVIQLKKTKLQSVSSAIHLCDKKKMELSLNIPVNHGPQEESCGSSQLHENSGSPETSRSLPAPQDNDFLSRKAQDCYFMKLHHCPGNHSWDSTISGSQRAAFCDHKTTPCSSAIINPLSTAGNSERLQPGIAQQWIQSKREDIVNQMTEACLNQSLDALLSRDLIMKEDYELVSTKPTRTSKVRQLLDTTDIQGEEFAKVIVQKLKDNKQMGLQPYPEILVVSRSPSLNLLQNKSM
In short: as §1

MAP4K5 = MAP4K5 (Homo sapiens, UniProt Q9Y4K4); conditions: MAP4K5, 1 µM inhibitor; read-out: Residual activity, %
Sequence of MAP4K5 (Q9Y4K4 whole entry): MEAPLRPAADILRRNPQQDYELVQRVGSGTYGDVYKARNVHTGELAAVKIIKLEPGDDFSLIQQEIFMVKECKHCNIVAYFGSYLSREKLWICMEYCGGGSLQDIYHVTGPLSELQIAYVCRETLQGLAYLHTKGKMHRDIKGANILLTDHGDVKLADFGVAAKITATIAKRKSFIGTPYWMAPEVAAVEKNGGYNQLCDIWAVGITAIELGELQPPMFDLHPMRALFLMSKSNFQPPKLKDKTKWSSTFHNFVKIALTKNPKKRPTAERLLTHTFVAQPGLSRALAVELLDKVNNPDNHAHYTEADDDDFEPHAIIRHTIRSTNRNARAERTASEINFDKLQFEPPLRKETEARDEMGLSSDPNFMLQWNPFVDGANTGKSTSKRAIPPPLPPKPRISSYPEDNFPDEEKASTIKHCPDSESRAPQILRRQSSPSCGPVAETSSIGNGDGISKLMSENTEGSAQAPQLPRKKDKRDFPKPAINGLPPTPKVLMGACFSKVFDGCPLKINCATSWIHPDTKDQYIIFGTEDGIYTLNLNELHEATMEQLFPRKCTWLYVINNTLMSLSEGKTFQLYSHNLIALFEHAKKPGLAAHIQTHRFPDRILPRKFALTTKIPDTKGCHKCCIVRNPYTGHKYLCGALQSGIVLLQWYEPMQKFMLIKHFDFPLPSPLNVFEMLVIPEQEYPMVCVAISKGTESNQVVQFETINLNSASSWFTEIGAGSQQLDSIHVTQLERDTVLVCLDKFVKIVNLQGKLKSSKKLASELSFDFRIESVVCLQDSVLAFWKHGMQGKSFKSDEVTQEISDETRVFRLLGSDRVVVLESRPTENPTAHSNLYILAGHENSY
In short: as §1

MKK2 = MKK2 (Homo sapiens, UniProt P36507); conditions: MKK2, 1 µM inhibitor; read-out: Residual activity, %
In short: as §1

IKK = target: T1, IKK (Homo sapiens, UniProt Q14164); conditions: second of two IKK lines (Greek letter lost), 1 µM inhibitor, read-out: Residual activity, %
T1 sequence (Q14164 1-716): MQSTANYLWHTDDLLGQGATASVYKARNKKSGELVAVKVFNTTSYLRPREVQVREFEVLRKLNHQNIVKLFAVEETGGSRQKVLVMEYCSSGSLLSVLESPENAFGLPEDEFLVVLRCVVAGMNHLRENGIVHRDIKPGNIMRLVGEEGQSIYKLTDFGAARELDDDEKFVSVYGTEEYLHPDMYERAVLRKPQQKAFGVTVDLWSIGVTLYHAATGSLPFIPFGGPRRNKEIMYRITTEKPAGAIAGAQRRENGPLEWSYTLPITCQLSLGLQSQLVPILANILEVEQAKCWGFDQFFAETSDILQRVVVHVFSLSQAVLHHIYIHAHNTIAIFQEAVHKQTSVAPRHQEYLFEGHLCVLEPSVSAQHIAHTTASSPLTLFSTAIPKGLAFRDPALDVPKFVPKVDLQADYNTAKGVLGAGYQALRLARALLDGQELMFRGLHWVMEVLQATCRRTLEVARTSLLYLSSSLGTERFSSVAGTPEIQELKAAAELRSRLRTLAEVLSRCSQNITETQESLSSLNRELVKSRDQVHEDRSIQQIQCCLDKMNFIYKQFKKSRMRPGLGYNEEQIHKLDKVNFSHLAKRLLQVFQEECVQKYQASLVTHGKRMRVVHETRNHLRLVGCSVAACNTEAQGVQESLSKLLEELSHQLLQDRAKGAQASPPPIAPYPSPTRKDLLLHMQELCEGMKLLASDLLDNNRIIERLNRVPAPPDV
In short: as §1

MAP4K3 = target: T2, MAP4K3 (Homo sapiens, UniProt Q8IVH8); conditions: MAP4K3, 1 µM inhibitor; read-out: Residual activity, %
T2 sequence (Q8IVH8 1-894): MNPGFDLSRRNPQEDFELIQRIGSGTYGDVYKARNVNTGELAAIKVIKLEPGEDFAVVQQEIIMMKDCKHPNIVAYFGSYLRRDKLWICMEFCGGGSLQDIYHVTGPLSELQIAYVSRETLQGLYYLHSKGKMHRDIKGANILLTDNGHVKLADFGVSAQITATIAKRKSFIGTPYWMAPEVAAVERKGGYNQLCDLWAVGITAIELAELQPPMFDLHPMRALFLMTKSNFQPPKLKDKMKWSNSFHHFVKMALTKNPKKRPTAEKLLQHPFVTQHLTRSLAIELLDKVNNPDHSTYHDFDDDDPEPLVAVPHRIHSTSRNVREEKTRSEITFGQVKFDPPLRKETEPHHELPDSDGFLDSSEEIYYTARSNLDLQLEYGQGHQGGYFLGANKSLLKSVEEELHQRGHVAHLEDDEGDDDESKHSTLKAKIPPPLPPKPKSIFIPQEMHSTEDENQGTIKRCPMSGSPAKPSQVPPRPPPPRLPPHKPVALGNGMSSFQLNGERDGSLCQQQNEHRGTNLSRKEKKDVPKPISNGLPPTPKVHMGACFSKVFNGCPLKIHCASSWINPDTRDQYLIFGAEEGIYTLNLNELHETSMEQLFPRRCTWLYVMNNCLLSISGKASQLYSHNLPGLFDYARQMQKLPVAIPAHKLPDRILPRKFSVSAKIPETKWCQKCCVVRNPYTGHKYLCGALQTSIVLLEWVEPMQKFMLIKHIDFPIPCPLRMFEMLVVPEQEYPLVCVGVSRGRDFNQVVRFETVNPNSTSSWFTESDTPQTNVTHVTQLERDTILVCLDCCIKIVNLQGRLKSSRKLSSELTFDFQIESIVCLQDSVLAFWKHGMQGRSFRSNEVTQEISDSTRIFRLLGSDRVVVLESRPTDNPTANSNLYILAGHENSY
In short: as §1

| Compound | remaining activity at 1 µM (WNK1) | remaining activity at 1 µM (PHK) | remaining activity at 1 µM (PDGFRA) | remaining activity at 1 µM (RIPK2) | remaining activity at 1 µM (MAP4K5) | remaining activity at 1 µM (MKK2) | remaining activity at 1 µM (IKK) | remaining activity at 1 µM (MAP4K3) |
| --- | --- | --- | --- | --- | --- | --- | --- | --- |
| N=C(N)NCCC[C@@H](NC(=O)CCCCCNC(=O)Cn1cnc2c(I)c(I)c(I)c(I)c21)C(=O)N[C@H](CCCNC(=N)N)C(=O)N[C@H](CCCNC(=N)N)C(=O)N[C@H](CCCNC(=N)N)C(=O)N[C@H](CCCNC(=N)N)C(=O)N[C@H](CCCNC(=N)N)C(=O)N[C@H](CCCCN)C(N)=O [ARC-3125, TIBI-CH2-C(=O)-Ahx-(D-Arg)6-D-Lys-NH2] | 105 ± 33% | 104 ± 11% | 97% | 37 ± 6% | 102 ± 3% | 68 ± 5% | 77 ± 4% | 17 ± 1% |
| N=C(N)NCCC[C@@H](NC(=O)CCCCCNCc1nc2c(sc3cc(Br)cnc32)c(=O)[nH]1)C(=O)N[C@H](CCCNC(=N)N)C(=O)N[C@H](CCCNC(=N)N)C(=O)N[C@H](CCCNC(=N)N)C(=O)N[C@H](CCCNC(=N)N)C(=O)N[C@H](CCCNC(=N)N)C(=O)N[C@H](CCCCN)C(N)=O [ARC-3126, BPTP-Ahx-(D-Arg)6-D-Lys-NH2] (X3-[dR][dR][dR][dR][dR][dR][dK]-NH2) | 107 ± 34% | 128 ± 10% | 116 ± 3% | 99 ± 6% | 50 ± 12% | 117 ± 14% | 118 ± 12% | 81 ± 7% |
| N=C(N)NCCC[C@@H](NC(=O)CNC(=O)[C@@H](CCCNC(=N)N)NC(=O)[C@@H](CCCNC(=N)N)NC(=O)CCCCCCCNCc1nc2c(sc3cc(Br)cnc32)c(=O)[nH]1)C(=O)N[C@H](CCCCN)C(N)=O [Compound 1, BPTP-Aoc-(D-Arg)2-Gly-D-Arg-D-Lys-NH2] | 96 ± 4% | 109 ± 3% | 115 ± 2% | 62 ± 7% | 107 ± 12% | 102 ± 5% | 116 ± 9% | 119 ± 1% |
| N=C(N)NCCC[C@@H](NC(=O)CNC(=O)[C@@H](CCCNC(=N)N)NC(=O)[C@@H](CCCNC(=N)N)NC(=O)CCCCCCCNCc1nc2c(sc3ccc(Br)cc32)c(=O)[nH]1)C(=O)N[C@H](CCCCN)C(N)=O [Compound 2, BBTP-Aoc-(D-Arg)2-Gly-D-Arg-D-Lys-NH2] | 93 ± 1% | 98 ± 4% | 101 ± 16% | 72% | 112 ± 10% | 108 ± 11% | 104 ± 15% | 118 ± 3% |
| N=C(N)NCCC[C@@H](NC(=O)CNC(=O)[C@@H](CCCNC(=N)N)NC(=O)[C@@H](CCCNC(=N)N)NC(=O)Cn1cc(CNCc2nc3c(sc4ccc(Br)cc43)c(=O)[nH]2)nn1)C(=O)N[C@H](CCCCN)C(N)=O [Compound 3, BBTP-Amt-(D-Arg)2-Gly-D-Arg-D-Lys-NH2] | 104 ± 6% | 78 ± 6% | 108 ± 4% | 71 ± 8% | 98 ± 3% | 96 ± 7% | 122 ± 12% | 105 ± 2% |
